The text below walks through data of article PMC5364489, “Isolation and characterization of the E. coli membrane protein production strain Mutant56(DE3)”.

The series addresses wild-type T7 RNA polymerase (Enterobacteria phage T7 (gene from E. …, UniProt P00573 1-883)). Nature of the series: EMSA; 2.5 uM dsDNA; half-saturation compared only in figure, not a true Kd; 50 mM Tris acetate, 10 mM magnesium acetate, 50 mM sodium acetate (pH not stated), 25 °C, 30 min; 1.5% TAE agarose gel. Conditions: protein: recombinant; label: 5' ATTO488 on strand 1; blunt.

wild-type T7 RNA polymerase (Enterobacteria phage T7, sequence (P00573 whole entry): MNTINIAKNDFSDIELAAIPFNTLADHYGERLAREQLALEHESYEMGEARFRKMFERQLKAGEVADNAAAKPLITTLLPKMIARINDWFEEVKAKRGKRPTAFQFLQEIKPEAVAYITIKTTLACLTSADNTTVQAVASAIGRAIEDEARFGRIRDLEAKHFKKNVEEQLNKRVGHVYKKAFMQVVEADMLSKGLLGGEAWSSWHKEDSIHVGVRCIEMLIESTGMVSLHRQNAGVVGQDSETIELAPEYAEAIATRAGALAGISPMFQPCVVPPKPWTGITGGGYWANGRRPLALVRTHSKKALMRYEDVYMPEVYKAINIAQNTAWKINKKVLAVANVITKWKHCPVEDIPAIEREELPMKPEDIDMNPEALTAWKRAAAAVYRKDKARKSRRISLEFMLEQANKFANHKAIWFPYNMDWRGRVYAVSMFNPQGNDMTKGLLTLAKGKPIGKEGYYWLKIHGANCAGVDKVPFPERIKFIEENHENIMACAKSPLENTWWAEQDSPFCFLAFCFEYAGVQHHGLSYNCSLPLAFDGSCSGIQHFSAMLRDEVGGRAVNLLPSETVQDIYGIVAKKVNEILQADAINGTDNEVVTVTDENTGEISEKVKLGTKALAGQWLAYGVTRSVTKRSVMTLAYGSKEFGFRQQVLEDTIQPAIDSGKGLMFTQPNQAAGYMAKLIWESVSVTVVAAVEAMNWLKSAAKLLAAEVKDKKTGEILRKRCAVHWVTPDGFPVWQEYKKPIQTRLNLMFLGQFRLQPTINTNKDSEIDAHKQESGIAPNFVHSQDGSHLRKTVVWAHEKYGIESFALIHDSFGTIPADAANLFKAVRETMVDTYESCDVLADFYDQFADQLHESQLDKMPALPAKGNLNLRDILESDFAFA

B1: T7 promoter dsDNA (dsDNA)
DNA 1: GCCAGTAATACGACTCACTATAGGG
DNA 2: CCCTATAGTGAGTCGTATTACTGGC
Turning to B1, the binding result is on record as “binds”.
